In article PMC6126186:

Target: exonuclease domain from the DNA repair protein WRN
Assay: SEC-MALS; protein concentrated (10x and 20x) in a mixture of 50 mM phosphate and 1% sucrose; A280 and MALS across the elution peak

Chain of exonuclease domain from the DNA repair protein WRN (Q14191 2-1432): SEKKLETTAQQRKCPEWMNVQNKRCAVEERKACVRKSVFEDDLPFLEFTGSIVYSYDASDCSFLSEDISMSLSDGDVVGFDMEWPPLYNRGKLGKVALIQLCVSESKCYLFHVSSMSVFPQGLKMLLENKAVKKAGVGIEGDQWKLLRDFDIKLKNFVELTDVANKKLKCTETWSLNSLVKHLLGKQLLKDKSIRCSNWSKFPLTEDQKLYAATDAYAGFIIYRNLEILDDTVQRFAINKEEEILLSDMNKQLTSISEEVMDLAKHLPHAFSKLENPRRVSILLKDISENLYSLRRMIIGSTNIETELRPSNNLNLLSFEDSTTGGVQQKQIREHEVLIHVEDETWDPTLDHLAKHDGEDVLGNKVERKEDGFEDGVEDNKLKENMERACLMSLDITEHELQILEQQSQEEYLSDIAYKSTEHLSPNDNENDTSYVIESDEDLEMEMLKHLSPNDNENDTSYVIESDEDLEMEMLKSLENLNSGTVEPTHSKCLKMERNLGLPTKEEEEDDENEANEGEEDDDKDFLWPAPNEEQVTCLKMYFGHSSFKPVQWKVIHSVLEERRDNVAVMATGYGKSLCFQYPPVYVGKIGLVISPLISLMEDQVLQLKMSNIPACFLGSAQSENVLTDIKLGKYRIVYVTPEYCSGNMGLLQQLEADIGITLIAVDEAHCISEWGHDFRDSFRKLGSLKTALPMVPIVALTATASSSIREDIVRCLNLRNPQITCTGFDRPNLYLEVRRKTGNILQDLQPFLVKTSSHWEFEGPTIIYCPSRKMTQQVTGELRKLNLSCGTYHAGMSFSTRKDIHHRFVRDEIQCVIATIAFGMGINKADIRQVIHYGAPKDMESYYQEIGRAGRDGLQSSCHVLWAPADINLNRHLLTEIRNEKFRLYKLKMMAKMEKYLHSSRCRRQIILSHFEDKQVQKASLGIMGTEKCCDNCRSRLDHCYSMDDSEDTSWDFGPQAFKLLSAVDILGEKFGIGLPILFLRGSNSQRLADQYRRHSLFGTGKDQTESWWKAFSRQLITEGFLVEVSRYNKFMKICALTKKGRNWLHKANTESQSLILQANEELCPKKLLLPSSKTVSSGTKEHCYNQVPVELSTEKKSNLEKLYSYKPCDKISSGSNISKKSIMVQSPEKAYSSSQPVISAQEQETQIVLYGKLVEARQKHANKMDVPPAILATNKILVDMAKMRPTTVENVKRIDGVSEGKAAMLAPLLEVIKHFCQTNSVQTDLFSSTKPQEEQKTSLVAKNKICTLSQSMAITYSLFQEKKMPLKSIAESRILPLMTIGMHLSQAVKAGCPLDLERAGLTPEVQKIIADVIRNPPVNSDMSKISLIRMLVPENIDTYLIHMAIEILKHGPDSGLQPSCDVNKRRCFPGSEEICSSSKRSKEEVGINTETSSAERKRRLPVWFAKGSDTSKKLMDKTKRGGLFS

For “exonuclease domain from the DNA repair protein WRN (domain or fragment)”, the stoichiometry N was 2.
